This note sets out measurements from article PMC4433226.

Series [1] deals with T1, Ku70/Ku80 wild type;DNA-PKcs (human?;human (HeLa cells), UniProt P12956;P13010;P78527 1-609;1-732;1-4128, |). Briefly: ELISA; ELISA: 20 mM HEPES pH 7.5, 75 mM KCl, 10% glycerol, 0.005% Triton X-100, 2 mM DTT, room temperature, 1 h, 2 pmol DNA, 424 ng DNA-PKcs; EMSA: 20 ul, 500 fmol DNA, buffer as in earlier papers. The note with it: protein: recombinant;native; tags: His (Ku70);; copies: 1;1;1; label: 5' biotin on one end; blunt.

Series [2] addresses T2, Ku70/Ku80 wild type (UniProt P12956;P13010 1-609;1-732). In words: EMSA; 1 and 2 Ku per DNA, preference for 2; ELISA: 20 mM HEPES pH 7.5, 75 mM KCl, 10% glycerol, 0.005% Triton X-100, 2 mM DTT, room temperature, 1 h, 2 pmol DNA, 424 ng DNA-PKcs; EMSA: 20 ul, 500 fmol DNA, buffer as in earlier papers. The conditions noted are these: protein: recombinant; tags: His (Ku70); copies: 1;1; blunt. In general terms: A gel shift assay detects complexes by their altered migration in electrophoresis.

Series [3] concerns the target T1, Ku70/Ku80 wild type;DNA-PKcs. Briefly: ELISA; more than double the 30bp and 400bp recruitment (Fig 4C); ELISA: 20 mM HEPES pH 7.5, 75 mM KCl, 10% glycerol, 0.005% Triton X-100, 2 mM DTT, room temperature, 1 h, 2 pmol DNA, 424 ng DNA-PKcs; EMSA: 20 ul, 500 fmol DNA, buffer as in earlier papers. The note with it: protein: recombinant;native; tags: His (Ku70);; copies: 1;1;1; label: 5' biotin on one end; blunt.

The target in series [4] is T2, Ku70/Ku80 wild type. In words: EMSA; primarily 1:1 Ku:DNA; ELISA: 20 mM HEPES pH 7.5, 75 mM KCl, 10% glycerol, 0.005% Triton X-100, 2 mM DTT, room temperature, 1 h, 2 pmol DNA, 424 ng DNA-PKcs; EMSA: 20 ul, 500 fmol DNA, buffer as in earlier papers. The note with it: protein: recombinant; tags: His (Ku70); copies: 1;1; blunt.

T2 sequence (P12956 whole entry, chain 1 of 2): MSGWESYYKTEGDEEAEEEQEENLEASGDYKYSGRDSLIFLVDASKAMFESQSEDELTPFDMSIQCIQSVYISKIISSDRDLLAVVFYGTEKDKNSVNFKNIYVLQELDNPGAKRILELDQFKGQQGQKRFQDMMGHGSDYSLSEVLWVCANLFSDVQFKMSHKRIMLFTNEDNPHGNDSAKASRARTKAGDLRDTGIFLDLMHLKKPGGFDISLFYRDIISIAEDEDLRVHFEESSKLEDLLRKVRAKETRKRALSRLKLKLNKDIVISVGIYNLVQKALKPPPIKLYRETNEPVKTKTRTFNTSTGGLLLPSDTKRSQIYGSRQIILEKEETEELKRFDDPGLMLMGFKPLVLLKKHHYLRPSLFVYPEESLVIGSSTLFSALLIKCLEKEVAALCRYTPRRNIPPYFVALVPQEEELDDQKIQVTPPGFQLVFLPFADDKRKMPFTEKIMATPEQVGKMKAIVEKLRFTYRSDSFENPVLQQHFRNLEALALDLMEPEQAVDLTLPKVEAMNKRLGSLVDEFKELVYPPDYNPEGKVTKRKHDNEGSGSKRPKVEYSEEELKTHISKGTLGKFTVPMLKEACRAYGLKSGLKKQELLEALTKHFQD
T2 sequence (P13010 whole entry, chain 2 of 2): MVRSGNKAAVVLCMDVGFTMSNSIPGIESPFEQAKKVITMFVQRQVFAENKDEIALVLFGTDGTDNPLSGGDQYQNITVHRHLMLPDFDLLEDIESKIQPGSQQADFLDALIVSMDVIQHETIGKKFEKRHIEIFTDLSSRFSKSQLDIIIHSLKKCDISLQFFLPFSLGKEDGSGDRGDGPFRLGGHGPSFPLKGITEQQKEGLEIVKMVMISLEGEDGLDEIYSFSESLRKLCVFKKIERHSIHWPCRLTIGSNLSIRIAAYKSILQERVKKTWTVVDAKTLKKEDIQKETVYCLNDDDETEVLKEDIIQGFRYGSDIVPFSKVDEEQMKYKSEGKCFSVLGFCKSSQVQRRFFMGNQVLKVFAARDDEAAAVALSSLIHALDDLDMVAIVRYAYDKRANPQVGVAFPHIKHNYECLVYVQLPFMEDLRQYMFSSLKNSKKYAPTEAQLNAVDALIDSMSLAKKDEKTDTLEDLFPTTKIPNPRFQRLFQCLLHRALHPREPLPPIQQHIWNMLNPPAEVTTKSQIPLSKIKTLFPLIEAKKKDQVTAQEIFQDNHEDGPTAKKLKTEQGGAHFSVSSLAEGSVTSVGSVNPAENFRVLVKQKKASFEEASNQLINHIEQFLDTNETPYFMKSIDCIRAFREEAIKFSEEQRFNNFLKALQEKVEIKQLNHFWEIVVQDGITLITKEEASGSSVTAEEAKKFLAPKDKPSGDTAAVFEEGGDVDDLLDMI

B1: 30bp blunt, biotinylated (dsDNA)
DNA 1: CACTTCCAACAGAGGTGACACTGCCTTCAG
DNA 2: CTGAAGGCAGTGTCACCTCTGTTGGAAGTG
Turning to B1, the binding signal in series [1] was > 4 fold vs DNA-PKcs without Ku.

B2: 60bp blunt (EMSA) (dsDNA)
DNA 1: CTTGACCAGTAGTCTAGCACGTGACGATTGCATGCGTCAAGTAAGATGCAGATACTTAAC
DNA 2: GTTAAGTATCTGCATCTTACTTGACGCATGCAATCGTCACGTGCTAGACTACTGGTCAAG
Turning to B2, the binding result in the series with Ku70/Ku80 wild type [2] was “binds”.

B3: 60bp blunt, biotinylated (dsDNA)
DNA 1: CTTGACCAGTAGTCTAGCACGTGACGATTGCATGCGTCAAGTAAGATGCAGATACTTAAC
DNA 2: GTTAAGTATCTGCATCTTACTTGACGCATGCAATCGTCACGTGCTAGACTACTGGTCAAG
Turning to B3, the binding signal in series [3] is > 4 fold vs DNA-PKcs without Ku.

B4: 30bp blunt (EMSA) (dsDNA)
DNA 1: CACTTCCAACAGAGGTGACACTGCCTTCAG
DNA 2: CTGAAGGCAGTGTCACCTCTGTTGGAAGTG
For the molecule B4, in the series with Ku70/Ku80 wild type [4], the binding result is “binds”.
